Experimental data from PMC3461508.
Each block holds one binder with its values, some of them ahead of it.

Target: mitochondrial ribosome (S. cerevisiae (endogenous in W303))
Test: co-sedimentation

percent bound to the ribosome: 20%
B1: Cbp3 (natural protein)
chain: ETAQDSPELLAKSSHLNSKPLDVSNKAPVKTAQNKIPLAHSKYESSKYELPKWKEALGELVIRAFHLDMDRVRAGPVAGSYYYKICKEQGLQYEDEPLSETAKYFYEDLKLPRTFSQWFQITVLHEWILFVRMRAMPFKYGRNYQQKLVDRTFSDIELRLFEEMKVNSGRIADQYLKDFNTQLRGAIFAYDEGFATDDGTLATAVWRNLFGGRKNIDMVHLESVVRYIYSQLYVLSRLSDREFATGKFKFVPPGVKVEKLTPKQEEELKAKTIAKYEALDKDPKTLPSERSRLSYTN

percent bound to the ribosome: 20%
B2: Cbp6 (natural protein)
chain: MSSSQVVRDSAKKLVNLLEKYPKDRIHHLVSFRDVQIARFRRVAGLPNVDDKGKSIKEKKPSLDEIKSIINRTSGPLGLNKEMLTKIQNKMVDEKFTEESINEQIRALSTIMNNKFRNYYDIGDKLYKPAGNPQYYQRLINAVDGKKKESLFTAMRTVLFGK
